In patent US20250313634A1 (WUXI BIOLOGICS SHANGHAI, published 2025):

Legend:
Test in all cases: capture ELISA on coated 1.14.4; relative to silent alanine substitutions
[1] = biological target: T1, hPD-L1_ECD.His point mutant N183A (human, UniProt Q9NZQ7 19-238)
T1 construct: extracellular domain
How it was run: (§1)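 Capture ELISA in which supernatant containing quantified PD-L1 alanine mutant was detected with HRP anti-His antibody. Absorbance was normalized to the average of control mutants. Epitope residues were called at binding fold change <0.55.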

[2] = biological target: T2, hPD-L1_ECD.His point mutant V23A (human, UniProt Q9NZQ7 19-238)
T2 construct: extracellular domain
How it was run: as §1

[3] = biological target: T3, hPD-L1_ECD.His point mutant Q83A (human, UniProt Q9NZQ7 19-238)
T3 construct: extracellular domain
How it was run: as §1

[4] = biological target: T4, hPD-L1_ECD.His point mutant Q100A (human, UniProt Q9NZQ7 19-238)
T4 construct: extracellular domain
How it was run: as §1

[5] = biological target: T5, hPD-L1_ECD.His point mutant K75A (human, UniProt Q9NZQ7 19-238)
T5 construct: extracellular domain
How it was run: as §1

[6] = biological target: T6, hPD-L1_ECD.His point mutant M115A (human, UniProt Q9NZQ7 19-238)
T6 construct: extracellular domain
How it was run: as §1

[7] = biological target: T7, hPD-L1_ECD.His point mutant N135A (human, UniProt Q9NZQ7 19-238)
T7 construct: extracellular domain
How it was run: as §1

[8] = biological target: T8, hPD-L1_ECD.His point mutant K41A (human, UniProt Q9NZQ7 19-238)
T8 construct: extracellular domain
How it was run: as §1

[9] = biological target: T9, hPD-L1_ECD.His point mutant L94A (human, UniProt Q9NZQ7 19-238)
T9 construct: extracellular domain
How it was run: as §1

[10] = biological target: T10, hPD-L1_ECD.His point mutant P161A (human, UniProt Q9NZQ7 19-238)
T10 construct: extracellular domain
How it was run: as §1

[11] = biological target: T11, hPD-L1_ECD.His point mutant G95A (human, UniProt Q9NZQ7 19-238)
T11 construct: extracellular domain
How it was run: as §1

[12] = biological target: T12, hPD-L1_ECD.His point mutant N131A (human, UniProt Q9NZQ7 19-238)
T12 construct: extracellular domain
How it was run: as §1

[13] = biological target: T13, hPD-L1_ECD.His point mutant V68A (human, UniProt Q9NZQ7 19-238)
T13 construct: extracellular domain
How it was run: as §1

[14] = biological target: T14, hPD-L1_ECD.His point mutant L106A (human, UniProt Q9NZQ7 19-238)
T14 construct: extracellular domain
How it was run: as §1

[15] = biological target: T15, hPD-L1_ECD.His point mutant A232G (human, UniProt Q9NZQ7 19-238)
T15 construct: extracellular domain
How it was run: as §1

[16] = biological target: T16, hPD-L1_ECD.His point mutant E71A (human, UniProt Q9NZQ7 19-238)
T16 construct: extracellular domain
How it was run: as §1

[17] = biological target: T17, hPD-L1_ECD.His point mutant Q107A (human, UniProt Q9NZQ7 19-238)
T17 construct: extracellular domain
How it was run: as §1

[18] = biological target: T18, hPD-L1_ECD.His point mutant S34A (human, UniProt Q9NZQ7 19-238)
T18 construct: extracellular domain
How it was run: as §1

[19] = biological target: T19, hPD-L1_ECD.His point mutant G119A (human, UniProt Q9NZQ7 19-238)
T19 construct: extracellular domain
How it was run: as §1

[20] = biological target: T20, hPD-L1_ECD.His point mutant Y56A (human, UniProt Q9NZQ7 19-238)
T20 construct: extracellular domain
How it was run: as §1

[21] = biological target: T21, hPD-L1_ECD.His point mutant L175A (human, UniProt Q9NZQ7 19-238)
T21 construct: extracellular domain
How it was run: as §1

[22] = biological target: T22, hPD-L1_ECD.His point mutant N236A (human, UniProt Q9NZQ7 19-238)
T22 construct: extracellular domain
How it was run: as §1

[23] = biological target: T23, hPD-L1_ECD.His point mutant R212A (human, UniProt Q9NZQ7 19-238)
T23 construct: extracellular domain
How it was run: as §1

[24] = biological target: T24, hPD-L1_ECD.His point mutant F191A (human, UniProt Q9NZQ7 19-238)
T24 construct: extracellular domain
How it was run: as §1

[25] = biological target: T25, hPD-L1_ECD.His point mutant P24A (human, UniProt Q9NZQ7 19-238)
T25 construct: extracellular domain
How it was run: as §1

[26] = biological target: T26, hPD-L1_ECD.His point mutant E31A (human, UniProt Q9NZQ7 19-238)
T26 construct: extracellular domain
How it was run: as §1

T26 sequence (Q9NZQ7 19-238 E31A): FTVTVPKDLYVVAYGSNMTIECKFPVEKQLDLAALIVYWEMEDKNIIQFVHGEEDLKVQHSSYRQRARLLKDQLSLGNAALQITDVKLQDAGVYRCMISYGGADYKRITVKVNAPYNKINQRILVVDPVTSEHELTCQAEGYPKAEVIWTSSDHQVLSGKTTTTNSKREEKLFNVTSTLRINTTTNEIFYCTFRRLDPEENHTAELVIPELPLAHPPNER
T2 sequence (Q9NZQ7 19-238 V23A): as the sequence (Q9NZQ7 19-238 E31A) above, with V5A, A13E counted along it
T24 sequence (Q9NZQ7 19-238 F191A): as the sequence (Q9NZQ7 19-238 E31A) above, with A13E, F173A counted along it
T13 sequence (Q9NZQ7 19-238 V68A): as the sequence (Q9NZQ7 19-238 E31A) above, with A13E, V50A counted along it
T17 sequence (Q9NZQ7 19-238 Q107A): as the sequence (Q9NZQ7 19-238 E31A) above, with A13E, Q89A counted along it
T4 sequence (Q9NZQ7 19-238 Q100A): as the sequence (Q9NZQ7 19-238 E31A) above, with A13E, Q82A counted along it
T19 sequence (Q9NZQ7 19-238 G119A): as the sequence (Q9NZQ7 19-238 E31A) above, with A13E, G101A counted along it
T6 sequence (Q9NZQ7 19-238 M115A): as the sequence (Q9NZQ7 19-238 E31A) above, with A13E, M97A counted along it
T1 sequence (Q9NZQ7 19-238 N183A): as the sequence (Q9NZQ7 19-238 E31A) above, with A13E, N165A counted along it
T3 sequence (Q9NZQ7 19-238 Q83A): as the sequence (Q9NZQ7 19-238 E31A) above, with A13E, Q65A counted along it
T10 sequence (Q9NZQ7 19-238 P161A): as the sequence (Q9NZQ7 19-238 E31A) above, with A13E, P143A counted along it
T16 sequence (Q9NZQ7 19-238 E71A): as the sequence (Q9NZQ7 19-238 E31A) above, with A13E, E53A counted along it
T21 sequence (Q9NZQ7 19-238 L175A): as the sequence (Q9NZQ7 19-238 E31A) above, with A13E, L157A counted along it
T11 sequence (Q9NZQ7 19-238 G95A): as the sequence (Q9NZQ7 19-238 E31A) above, with A13E, G77A counted along it
T15 sequence (Q9NZQ7 19-238 A232G): as the sequence (Q9NZQ7 19-238 E31A) above, with A13E, A214G counted along it
T18 sequence (Q9NZQ7 19-238 S34A): as the sequence (Q9NZQ7 19-238 E31A) above, with A13E, S16A counted along it
T20 sequence (Q9NZQ7 19-238 Y56A): as the sequence (Q9NZQ7 19-238 E31A) above, with A13E, Y38A counted along it
T22 sequence (Q9NZQ7 19-238 N236A): as the sequence (Q9NZQ7 19-238 E31A) above, with A13E, N218A counted along it
T9 sequence (Q9NZQ7 19-238 L94A): as the sequence (Q9NZQ7 19-238 E31A) above, with A13E, L76A counted along it
T7 sequence (Q9NZQ7 19-238 N135A): as the sequence (Q9NZQ7 19-238 E31A) above, with A13E, N117A counted along it
T5 sequence (Q9NZQ7 19-238 K75A): as the sequence (Q9NZQ7 19-238 E31A) above, with A13E, K57A counted along it
T23 sequence (Q9NZQ7 19-238 R212A): as the sequence (Q9NZQ7 19-238 E31A) above, with A13E, R194A counted along it
T8 sequence (Q9NZQ7 19-238 K41A): as the sequence (Q9NZQ7 19-238 E31A) above, with A13E, K23A counted along it
T12 sequence (Q9NZQ7 19-238 N131A): as the sequence (Q9NZQ7 19-238 E31A) above, with A13E, N113A counted along it
T14 sequence (Q9NZQ7 19-238 L106A): as the sequence (Q9NZQ7 19-238 E31A) above, with A13E, L88A counted along it
T25 sequence (Q9NZQ7 19-238 P24A): as the sequence (Q9NZQ7 19-238 E31A) above, with P6A, A13E counted along it

B1: 1.14.4 (antibody, V domains shown)
VH: EVQLLESGGGLVQPGGSLRLSCAASGFTFSSYAMSWVRQAPGKGLEWVSGISGSGGFTYYADSVKGRFTISRDNSKNTLYLQMNSLRAEDTAVYYCAKPPRGYNYGPFDYWGQGTLVTVSS
VL: SYVLTQPPSVSVAPGQTARITCGGNNIGSKSVHWYQQKPGQAPVLVVYDDSDRPSGIPERFSGSNSGNTATLTISRVEAGDEADYYCQVWDSSSDHVVFGGGTKLTVL
notes: Fully human monoclonal antibody with a human constant region of IgG4 isotype
- fold change [1]: 0.944 fold
- fold change [2]: 0.948 fold
- fold change [3]: 0.982 fold
- fold change [4]: 1.01 fold
- fold change [5]: 1.01 fold
- fold change [6]: 1.02 fold
- fold change [7]: 1.03 fold
- fold change [8]: 1.07 fold
- fold change [9]: 1.19 fold
- fold change [10]: 0.332 fold
- fold change [11]: 0.668 fold
- fold change [12]: 0.68 fold
- fold change [13]: 0.707 fold
- fold change [14]: 0.732 fold
- fold change [15]: 0.756 fold
- fold change [16]: 0.772 fold
- fold change [17]: 0.792 fold
- fold change [18]: 0.813 fold
- fold change [19]: 0.825 fold
- fold change [20]: 0.84 fold
- fold change [21]: 0.842 fold
- fold change [22]: 0.848 fold
- fold change [23]: 0.87 fold
- fold change [24]: 0.897 fold
- fold change [25]: 0.907 fold
- fold change [26]: 0.908 fold
